B1: 4C2-WTH (antibody, V domains shown)
VH: QSVEESGGRLVTPGTPLTLTCTVSGFSLGTFPIGWVRQAPGSGLEWIGIFNTDGSAAYASWARGRFTVFKNSTTVDLKMTSPTTEDTATYFCARINADYSGWYFGIWGPGTLVTVSS
VL: EMTQTPASVEVAVGGTVTIKCQASQSIYSYLAWYQQKPGQPPKPLIYEASKTPSGVPSRFKGSGSGTEYTLTISGVQCEDAATYYCQKGYSVSNVAFGGGTEVVVK
B2: 4C2-Candi4 (antibody, V domains shown)
VH: EVQLEESGGGVVQPGGSLKLSCTVSGFSLGTFPIGWVRQAPGKGLEWVGIFNTDGSAAYAASVKGRFTVSKNSTKNTVYLHMNSLKTEDTAVYFCARINADYSGWYFGIWGQGTLVTVSS
VL: DIQMTQSPSSLSVSVGGRVTITCQASQSIYSYLAWYQQKPGKAPKLLIYEASKTPSGVPSRFNGNGSGTEYTLTISSLQPEDSATYYCQKGYSVSNVAFGGGTEVEIK
B3: 4C2-Candi3 (antibody, V domains shown)
VH: B2 VH with V11L, K19A, K71R, N72D, T74S
VL: B2 VL with V13A, E70D, Y71F
B4: 4C2-Candi2 (antibody, V domains shown)
VH: B2 VH with V11L, G16M, K19R, T68N
VL: B2 VL with D1A, I2Q

Positions count from the first letter of the chain named.

Sequence of TNFRSF9 (CD137) (human) (chain, as listed by the source): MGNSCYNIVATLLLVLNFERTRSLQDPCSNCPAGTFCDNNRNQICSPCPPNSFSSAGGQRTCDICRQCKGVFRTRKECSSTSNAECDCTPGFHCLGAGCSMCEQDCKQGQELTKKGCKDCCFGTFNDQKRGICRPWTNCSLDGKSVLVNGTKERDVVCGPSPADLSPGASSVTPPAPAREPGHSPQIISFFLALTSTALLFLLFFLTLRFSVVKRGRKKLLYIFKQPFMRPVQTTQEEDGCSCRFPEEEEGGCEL

The experiment concerns the target TNFRSF9 (CD137) (human). In words: ELISA. On the technique in general: In an ELISA, binding on a coated surface is turned into a signal by an enzyme label.
The EC50 is the midpoint of the concentration-response curve. A lower EC50 goes with greater potency. In the case of B1, the midpoint of the response, the EC50, lay at 3.8 ng/mL.

The molecule B2 displayed an EC50 of 2.46 ng/mL. Compared with the last molecule, the EC50 is about 1.5-fold lower.

Molecule B3 showed an EC50 of 100 ng/mL.

B4 gave an EC50 of 2.38 ng/mL.

These data come from US20260351346 (published 2026).
